# Where two headings read alike, the source gives them in different places. Bridge positions count the residues as written; N and C are the ends. Ends that are not written are not given here. Peptide text beside a SMILES is read from it.
# T1: sPHGDH (1-307) (Homo sapiens, UniProt O43175)
# T1 construct: the truncated version of PHGDH (sPHGDH, 1-307); made in house
# T1 sequence (O43175 1-307): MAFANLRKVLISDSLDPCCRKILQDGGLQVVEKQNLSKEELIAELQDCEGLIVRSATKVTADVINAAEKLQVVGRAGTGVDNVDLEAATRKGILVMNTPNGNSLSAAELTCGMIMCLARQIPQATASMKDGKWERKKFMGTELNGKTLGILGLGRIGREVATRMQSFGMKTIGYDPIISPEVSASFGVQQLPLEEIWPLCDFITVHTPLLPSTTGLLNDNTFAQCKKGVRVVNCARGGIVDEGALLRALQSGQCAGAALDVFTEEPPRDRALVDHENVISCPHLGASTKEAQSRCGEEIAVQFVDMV
# T2: full-length PHGDH (1-533) (Homo sapiens, UniProt O43175)
# T2 construct: the full-length PHGDH (1-533); made in house
# T2 sequence (O43175 1-533): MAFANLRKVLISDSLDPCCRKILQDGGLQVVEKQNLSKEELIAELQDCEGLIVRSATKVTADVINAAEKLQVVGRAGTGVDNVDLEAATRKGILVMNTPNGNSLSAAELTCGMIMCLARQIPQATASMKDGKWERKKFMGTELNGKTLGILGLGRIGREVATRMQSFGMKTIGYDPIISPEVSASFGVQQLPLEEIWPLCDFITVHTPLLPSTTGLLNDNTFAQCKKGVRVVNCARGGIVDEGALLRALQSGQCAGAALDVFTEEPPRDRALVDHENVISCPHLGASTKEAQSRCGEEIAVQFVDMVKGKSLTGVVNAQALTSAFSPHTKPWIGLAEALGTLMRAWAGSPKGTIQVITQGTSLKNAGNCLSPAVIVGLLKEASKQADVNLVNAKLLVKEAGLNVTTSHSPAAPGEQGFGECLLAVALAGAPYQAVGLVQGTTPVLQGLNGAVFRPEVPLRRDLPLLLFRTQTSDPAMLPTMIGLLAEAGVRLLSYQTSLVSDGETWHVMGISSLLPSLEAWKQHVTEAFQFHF
# T3: full-length PHGDH (1-533) (human, UniProt O43175 1-533)
# T3 sequence (looked up): T2 sequence (O43175 1-533)
# T4: truncated version of PHGDH (sPHGDH, 1-307) (human, UniProt O43175 1-307, labelled with Monolith NT.115 Protein Labeling Kit RED-NHS (in the MST assay only))
# T4 sequence (looked up): T1 sequence (O43175 1-307)
# B1: cyclic peptide cyc1-12 (peptide)
# peptide: CTPQATLSMKNGSWEQKKC
# modifications: disulfide 1-19; not fully specified (N-terminus); printed as C_1_TPQA TLSMK NGSWE QKKC_19_
# notes: contains R16Q, with A7L, D11N and K13S (peptide numbering); designed from the dimerization loop of human PHGDH; source: synthetic peptide (GL Biochem, Shanghai; Fmoc solid-phase synthesis, HPLC purified)
# B2: cyclic peptide cyc1-9 (peptide)
# peptide: CTPQATASMKNGSWQEKKC
# modifications: disulfide 1-19; not fully specified (N-terminus); printed as C_1_TPQA TASMK NGSWQ EKKC_19_
# notes: the text names D11N, K13S and E15Q; designed from the dimerization loop of human PHGDH; source: synthetic peptide (GL Biochem, Shanghai; Fmoc solid-phase synthesis, HPLC purified)
# B3: cyclic peptide cyc1-11 (peptide)
# peptide: CTPQATLTMKNGSWEEKKC
# modifications: disulfide 1-19; not fully specified (N-terminus); printed as C_1_TPQA TLTMK NGSWE EKKC_19_
# notes: A7L and S8T combined with D11N, K13S, native E15 kept, E16 (peptide numbering); designed from the dimerization loop of human PHGDH; source: synthetic peptide (GL Biochem, Shanghai; Fmoc solid-phase synthesis, HPLC purified)
# B4: double constrained cyclic peptide cyc2-1 (peptide)
# peptide: Ac-CTPQATACMKDGKWCRKKC
# modifications: disulfide 1-19, 8-15
# notes: cyc1-1 with an added intramolecular disulfide C8-C15 (S8C, E15C); designed from the dimerization loop of human PHGDH; source: synthetic peptide (GL Biochem, Shanghai; Fmoc solid-phase synthesis, stepwise disulfide formation, HPLC purified)
# B5: double constrained cyclic peptide cyc2-3 (peptide)
# peptide: Ac-CTPQATACMRDGKWCRKKC
# modifications: disulfide 1-19, 8-15
# notes: cyc2-1 with K10R (peptide numbering); source: synthetic peptide (GL Biochem, Shanghai; Fmoc solid-phase synthesis, stepwise disulfide formation, HPLC purified)
# B6: cyclic peptide cyc1-2 (peptide)
# peptide: CTPQATLSMKDGKWEEKKC
# modifications: disulfide 1-19; not fully specified (N-terminus); printed as C_1_TPQA TLSMK DGKWE EKKC_19_
# notes: cyc1-1 with A7L and R16E (peptide numbering); designed from the dimerization loop of human PHGDH; source: synthetic peptide (GL Biochem, Shanghai; Fmoc solid-phase synthesis, HPLC purified)
# B7: cyclic peptide cyc1-6 (peptide)
# peptide: CTPDATLSMKDGKWEEKKC
# modifications: disulfide 1-19; not fully specified (N-terminus); printed as C_1_TPDA TLSMK DGKWE EKKC_19_
# notes: cyc1-2 with Q4D (peptide numbering); designed from the dimerization loop of human PHGDH; source: synthetic peptide (GL Biochem, Shanghai; Fmoc solid-phase synthesis, HPLC purified)
# What was measured:
# sPHGDH (1-307) = molecular target: T1, sPHGDH (1-307); assay: sPHGDH enzyme activity assay (NADH fluorescence); type: biochemical
# Protocol: (§1) PHGDH activity in the presence of peptides was measured in 96-well plates (100 μL per well) at 25 °C, through monitoring the NADH fluorescence (excitation at 360 nm and emission at 460 nm) over time. PAST1 and its substrate glutamate were also included in order to prevent product inhibition. In the enzyme assays, protein expression and purification, including the truncated version of PHGDH (sPHGDH, 1-307), the full-length PHGDH (1-533), and PAST1, were carried out as described in our previous papers. To evaluate the effects of peptides on enzyme activity, the peptides were pre-incubated with enzyme samples (sPHGDH 453.3 nM or PHGDH 30.9 nM) in the assay buffer (HEPES 50 mM, pH 7.5, 10 mM MgCl2, and 1 mM EDTA) for 12 h. Then, 1.98 μM PAST1, 1 mM NAD^+, and 30 mM glutamate were added and pre-incubated for 10 min before initiating the enzyme reaction via the addition of the substrate (1 mM 3-PG). Fluorescence signals were recorded for 3 min with the kinetics-reading mode of the Biotek plate reader (Synergy). IC50 values were obtained through fitting the data using a three-parameter Hill model of the graph of log dose against the percentage inhibition from three repeated experiments. For those peptides containing two disulfide bonds, a second step of oxidation reaction was carried out to generate the second disulfide pair. […] The purified Acm-protected peptide was then treated with iodine (I2, 1 wt% in MeOH), dropwise under acidic conditions until the solution became brown.
# [1] = molecular target: T2, full-length PHGDH (1-533); assay: full-length PHGDH enzyme activity assay (NADH fluorescence); type: biochemical
# Protocol: as §1
# [2] = molecular target: T3, full-length PHGDH (1-533); assay: cell-based or functional assay
# [3] = molecular target: T4, truncated version of PHGDH (sPHGDH, …); assay: cell-based or functional assay
# [4] = molecular target: T4, truncated version of PHGDH (sPHGDH, …); assay: MST; sPHGDH labelled with RED-NHS, 20 nM final; peptides in 16 points, 1:2 dilutions from 0.5 mM; 50 mM HEPES pH 7.5, 1 mM EDTA, 10 mM MgCl2, 100 mM NaCl, 0.005% Tween 20; incubated 16 h at room temperature; 1:1 binding mode; apparent; details: both partners purified
# [5] = sPHGDH, 12 h pre-incubation, read-out: IC50 Value
# [6] = read-out: IC50 value (μM), full-length PHGDH activity
# [7] = IC50 value (μM), full-length PHGDH activity
Molecule,IC50 of inhibition of full-length PHGDH enzyme activity (NADH fluorescence); the pair blocked is the PHGDH homo-oligomer (m2+m2) [2] [µM],IC50 of inhibition of sPHGDH enzyme activity (NADH fluorescence); the pair blocked is the sPHGDH homo-dimer (m1+m1) [3] [µM],Kd [4] [µM],other results
"CSCC[C@@H]1NC(=O)[C@H](CO)NC(=O)[C@H](C)NC(=O)[C@H]([C@@H](C)O)NC(=O)[C@H](C)NC(=O)[C@H](CCC(N)=O)NC(=O)[C@@H]2CCCN2C(=O)[C@H]([C@@H](C)O)NC(=O)[C@@H](NC(C)=O)CSSC[C@@H](C(=O)O)NC(=O)[C@H](CCCCN)NC(=O)[C@H](CCCCN)NC(=O)[C@H](Cc2c[nH]c3ccccc23)NC(=O)[C@H](CCC(=O)O)NC(=O)[C@H](Cc2c[nH]c3ccccc23)NC(=O)[C@H](CCCCN)NC(=O)CNC(=O)[C@H](CC(=O)O)NC(=O)[C@H](CC(C)C)NC1=O [Cyc1-5, C1TPQA TASML DGKWE WKKC19] (Ac-CTPQATASMLDGKWEWKKC-OH; disulfide 1-19)",–,–,–,"IC50 (sPHGDH (1-307); [5]): 13.4 ± 2 µM; IC50 [1, 6]: 37.1 ± 1.7 µM"
"CSCC[C@@H]1NC(=O)[C@@H]2CSSC[C@H](NC(=O)[C@H](Cc3c[nH]c4ccccc34)NC(=O)[C@H](CCCCN)NC(=O)CNC(=O)[C@H](CC(=O)O)NC(=O)[C@H](CC(C)C)NC1=O)C(=O)N[C@@H](CCC(=O)O)C(=O)N[C@@H](CCCCN)C(=O)N[C@@H](CCCCN)C(=O)N[C@H](C(=O)O)CSSC[C@H](NC(C)=O)C(=O)N[C@@H]([C@@H](C)O)C(=O)N1CCC[C@H]1C(=O)N[C@@H](CCC(N)=O)C(=O)N[C@@H](C)C(=O)N[C@@H]([C@@H](C)O)C(=O)N[C@@H](C)C(=O)N2 [Cyc2-6, C1TPQA TAC8ML DGKWC15 EKKC19] (Ac-CTPQATACMLDGKWCEKKC-OH; disulfide 1-19, 8-15)",–,–,–,"IC50 (sPHGDH (1-307)): 15 ± 1 µM; IC50 [1, 7]: 47.1 ± 5.2 µM"
"CSCC[C@@H]1NC(=O)[C@@H]2CSSC[C@H](NC(=O)[C@H](Cc3c[nH]c4ccccc34)NC(=O)[C@H](CCCCN)NC(=O)CNC(=O)[C@H](CC(=O)O)NC(=O)[C@H](CC(C)C)NC1=O)C(=O)N[C@@H](CCCNC(=N)N)C(=O)N[C@@H](CCCCN)C(=O)N[C@@H](CCCCN)C(=O)N[C@H](C(=O)O)CSSC[C@H](NC(C)=O)C(=O)N[C@@H]([C@@H](C)O)C(=O)N1CCC[C@H]1C(=O)N[C@@H](CCC(N)=O)C(=O)N[C@@H](C)C(=O)N[C@@H]([C@@H](C)O)C(=O)N[C@@H](C)C(=O)N2 [Cyc2-2, C1TPQA TAC8ML DGKWC15 RKKC19] (Ac-CTPQATACMLDGKWCRKKC-OH; disulfide 1-19, 8-15)",–,–,–,"IC50 (sPHGDH (1-307)): 9.4 ± 1.5 µM; IC50 [1, 7]: 32.9 ± 4 µM"
"CSCC[C@@H]1NC(=O)[C@H](CO)NC(=O)[C@H](CC(C)C)NC(=O)[C@H]([C@@H](C)O)NC(=O)[C@H](C)NC(=O)[C@H](CC(=O)O)NC(=O)[C@@H]2CCCN2C(=O)[C@H]([C@@H](C)O)NC(=O)[C@@H](NC(C)=O)CSSC[C@@H](C(=O)O)NC(=O)[C@H](CCCCN)NC(=O)[C@H](CCCCN)NC(=O)[C@H](CCC(=O)O)NC(=O)[C@H](CCC(=O)O)NC(=O)[C@H](Cc2c[nH]c3ccccc23)NC(=O)[C@H](CCCCN)NC(=O)CNC(=O)[C@H](CC(=O)O)NC(=O)[C@H](CCCCN)NC1=O [Cyc1-6, C1TPDA TLSMK DGKWE EKKC19] (Ac-CTPDATLSMKDGKWEEKKC-OH; disulfide 1-19)",–,–,–,"IC50 (sPHGDH (1-307); [5]): 5.1 ± 0.4 µM; IC50 [1, 6]: 24.6 ± 2.3 µM"
B1,20.3,5.6,–,–
B2,–,4.7,9.8 ± 2.2,–
B3,16.2,5.4,23.1 ± 4.2,–
B4,37.3,12,3.3 ± 0.8,–
B5,32.9,5.2,–,–
B6,–,6.4,11.4 ± 3,–
B7,–,5.1,24.8 ± 7.1,–
